Consider four sequences from the supplement of paper PMC5998384.

Data set [1] relates to HeLa Kyoto. Nature of the data set: thermal stability score vs G1/S (z-score of summed log2 fold changes over temperatures); higher = more thermally stable than in G1/S.
In data set [2] the test system is HeLa Kyoto. The data set is described as follows: solubility change mitosis vs G1/S (difference of NP-40 vs SDS log2 ratios) (log2 ratio difference); higher = more soluble in mitosis.
Data set [3] deals with HeLa Kyoto. The data set is described as follows: solubility in G1/S (NP-40 vs SDS abundance) (log2 ratio); higher = more soluble. The following applies: cell cycle stage: G1/S.
Data set [4] deals with HeLa Kyoto. Nature of the data set: melting temperature (median over replicates), in situ; higher = more thermally stable.
Setting [5] is: cell cycle stage: early G1 (4.5 h after nocodazole release).
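For melting temperature (median over replicates), in situ in this document: HeLa Kyoto cells synchronized by double thymidine or nocodazole block, proteins quantified by TMT10plex mass spectrometry, three independent biological replicates.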
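For solubility change mitosis vs G1/S (difference of NP-40 vs SDS log2 ratios) in this document: synchronized HeLa Kyoto cells (double thymidine block for G1/S, nocodazole release for mitosis), protein amounts in NP-40 versus SDS lysates quantified by mass spectrometry, three biological replicates.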
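For solubility in G1/S (NP-40 vs SDS abundance) in this document: HeLa Kyoto cells arrested at G1/S by double thymidine block, proteins quantified by TMT10plex mass spectrometry in mild NP-40 versus SDS extracts, three biological replicates.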
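For thermal stability score vs G1/S (z-score of summed log2 fold changes over temperatures) in this document: synchronized HeLa Kyoto cells, proteins quantified by TMT10plex mass spectrometry, three biological replicates, mitosis taken 0.5 h after nocodazole release, G1/S directly after double thymidine block.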

Take “MNLLPKSSREFGSVDYWEKFFQQRGKKAFEWYGTYLELCGVLHKYIKPREKVLVIGCGNSELSEQLYDVGYRDIVNIDISEVVIKQMKECNATRRPQMSFLKMDMTQMEFPDASFQVVLDKGTLDAVLTDEEEKTLQQVDRMLAEVGRVLQVGGRYLCISLAQAHILKKAVGHFSREGWMVRVHQVANSQDQVLEAEPQFSLPVFAFIMTKFRPVPGSALQIFELCAQEQRKPVRLESAERLAEAVQERQQYAWLCSQLRRKARLGSVSLDLCDGDTGEPRYTLHVVDSPTVKPSRDNHFAIFIIPQGRETEWLFGMDEGRKQLAASAGFRRLITVALHRGQQYESMDHIQAELSARVMELAPAGMPTQQQVPFLSVGGDIGVRTVQHQDCSPLSGDYVIEDVQGDDKRYFRRLIFLSNRNVVQSEARLLKDVSHKAQKKRKKDRKKQRPADAEDLPAAPGQSIDKSYLCCEHHKAMIAGLALLRNPELLLEIPLALLVVGLGGGSLPLFVHDHFPKSCIDAVEIDPSMLEVATQWFGFSQSDRMKVHIADGLDYIASLAGGGEARPCYDVIMFDVDSKDPTLGMSCPPPAFVEQSFLQKVKSILTPEGVFILNLVCRDLGLKDSVLAGLKAVFPLLYVRRIEGEVNEILFCQLHPEQKLATPELLETAQALERTLRKPGRGWDDTYVLSDMLKTVKIV [METTL13]”: the thermal stability score was found to be 0.527 in the data set on HeLa Kyoto [1] (setting [5]) and 1.18 with HeLa Kyoto [1] (cell cycle stage: mitosis). In addition, the “solubility change mitosis (log2)” value with HeLa Kyoto [2] is -0.0232. For the same sequence, the “solubility in G1/S (log2)” value with HeLa Kyoto [3] was -0.167. For the same sequence, the melting temperature amounted to 49.3 °C in the data set on HeLa Kyoto [4] (cell cycle stage: G1/S) and 48.9 °C in the data set with HeLa Kyoto [4] (cell cycle stage: mitosis).

Take “MEASRRFPEAEALSPEQAAHYLRYVKEAKEATKNGDLEEAFKLFNLAKDIFPNEKVLSRIQKIQEALEELAEQGDDEFTDVCNSGLLLYRELHNQLFEHQKEGIAFLYSLYRDGRKGGILADDMGLGKTVQIIAFLSGMFDASLVNHVLLIMPTNLINTWVKEFIKWTPGMRVKTFHGPSKDERTRNLNRIQQRNGVIITTYQMLINNWQQLSSFRGQEFVWDYVILDEAHKIKTSSTKSAICARAIPASNRLLLTGTPIQNNLQELWSLFDFACQGSLLGTLKTFKMEYENPITRAREKDATPGEKALGFKISENLMAIIKPYFLRRTKEDVQKKKSSNPEARLNEKNPDVDAICEMPSLSRKNDLIIWIRLVPLQEEIYRKFVSLDHIKELLMETRSPLAELGVLKKLCDHPRLLSARACCLLNLGTFSAQDGNEGEDSPDVDHIDQVTDDTLMEESGKMIFLMDLLKRLRDEGHQTLVFSQSRQILNIIERLLKNRHFKTLRIDGTVTHLLEREKRINLFQQNKDYSVFLLTTQVGGVGLTLTAATRVVIFDPSWNPATDAQAVDRVYRIGQKENVVVYRLITCGTVEEKIYRRQVFKDSLIRQTTGEKKNPFRYFSKQELRELFTIEDLQNSVTQLQLQSLHAAQRKSDIKLDEHIAYLQSLGIAGISDHDLMYTCDLSVKEELDVVEESHYIQQRVQKAQFLVEFESQNKEFLMEQQRTRNEGAWLREPVFPSSTKKKCPKLNKPQPQPSPLLSTHHTQEEDISSKMASVVIDDLPKEGEKQDLSSIKVNVTTLQDGKGTGSADSIATLPKGFGSVEELCTNSSLGMEKSFATKNEAVQKETLQEGPKQEALQEDPLESFNYVLSKSTKADIGPNLDQLKDDEILRHCNPWPIISITNESQNAESNVSIIEIADDLSASHSALQDAQASEAKLEEEPSASSPQYACDFNLFLEDSADNRQNFSSQSLEHVEKENSLCGSAPNSRAGFVHSKTCLSWEFSEKDDEPEEVVVKAKIRSKARRIVSDGEDEDDSFKDTSSINPFNTSLFQFSSVKQFDASTPKNDISPPGRFFSSQIPSSVNKSMNSRRSLASRRSLINMVLDHVEDMEERLDDSSEAKGPEDYPEEGVEESSGEASKYTEEDPSGETLSSENKSSWLMTSKPSALAQETSLGAPEPLSGEQLVGSPQDKAAEATNDYETLVKRGKELKECGKIQEALNCLVKALDIKSADPEVMLLTLSLYKQLNNN [ERCC6L]”: the results for the thermal stability score in the data set on HeLa Kyoto [1] (setting [5]) and with HeLa Kyoto [1] (cell cycle stage: mitosis) were 1.6 and 2.53, respectively. The “solubility change mitosis (log2)” value in the data set with HeLa Kyoto [2] was -0.161. In addition, the “solubility in G1/S (log2)” value in the data set on HeLa Kyoto [3] was -0.0349. The values for the melting temperature in the data set with HeLa Kyoto [4] (cell cycle stage: G1/S) and with HeLa Kyoto [4] (cell cycle stage: mitosis) were 49.5 °C and 49.1 °C, respectively.

In the case of “MREIVHIQAGQCGNQIGTKFWEVISDEHGIDPAGGYVGDSALQLERINVYYNESSSQKYVPRAALVDLEPGTMDSVRSGPFGQLFRPDNFIFGQTGAGNNWAKGHYTEGAELVDAVLDVVRKECEHCDCLQGFQLTHSLGGGTGSGMGTLLISKIREEFPDRIMNTFSVMPSPKVSDTVVEPYNATLSVHQLVENTDETYCIDNEALYDICFRTLKLTTPTYGDLNHLVSATMSGVTTSLRFPGQLNADLRKLAVNMVPFPRLHFFMPGFAPLTSRGSQQYRALTVPELTQQMFDARNMMAACDPRHGRYLTVATVFRGPMSMKEVDEQMLAIQSKNSSYFVEWIPNNVKVAVCDIPPRGLKMASTFIGNSTAIQELFKRISEQFSAMFRRKAFLHWFTGEGMDEMEFTEAESNMNDLVSEYQQYQDATANDGEEAFEDEEEEIDG [TUBB6]”, the thermal stability score in the data set on HeLa Kyoto [1] (setting [5]) was -0.862; in the data set on HeLa Kyoto [1] (cell cycle stage: mitosis), -2.31. Further, the “solubility change mitosis (log2)” value with HeLa Kyoto [2] was -0.124. The “solubility in G1/S (log2)” value in the data set with HeLa Kyoto [3] was found to be 0.0985. Moreover, the figures for the melting temperature in the data set on HeLa Kyoto [4] (cell cycle stage: G1/S) and with HeLa Kyoto [4] (cell cycle stage: mitosis) were 54.8 °C and 53.8 °C, respectively.

Turning to “MGLLLMILASAVLGSFLTLLAQFFLLYRRQPEPPADEAARAGEGFRYIKPVPGLLLREYLYGGGRDEEPSGAAPEGGATPTAAPETPAPPTRETCYFLNATILFLFRELRDTALTRRWVTKKIKVEFEELLQTKTAGRLLEGLSLRDVFLGETVPFIKTIRLVRPVVPSATGEPDGPEGEALPAACPEELAFEAEVEYNGGFHLAIDVDLVFGKSAYLFVKLSRVVGRLRLVFTRVPFTHWFFSFVEDPLIDFEVRSQFEGRPMPQLTSIIVNQLKKIIKRKHTLPNYKIRFKPFFPYQTLQGFEEDEEHIHIQQWALTEGRLKVTLLECSRLLIFGSYDREANVHCTLELSSSVWEEKQRSSIKTVELIKGNLQSVGLTLRLVQSTDGYAGHVIIETVAPNSPAAIADLQRGDRLIAIGGVKITSTLQVLKLIKQAGDRVLVYYERPVGQSNQGAVLQDNFGQLEENFLSSSCQSGYEEEAAGLTVDTESRELDSEFEDLASDVRAQNEFKDEAQSLSHSPKRVPTTLSIKPLGAISPVLNRKLAVGSHPLPPKIQSKDGNKPPPLKTSEITDPAQVSKPTQGSAFKPPVPPRPQAKVPLPSADAPNQAEPDVLVEKPEKVVPPPLVDKSAEKQAKNVDAIDDAAAPKQFLAKQEVAKDVTSETSCPTKDSSDDRQTWESSEILYRNKLGKWTRTRASCLFDIEACHRYLNIALWCRDPFKLGGLICLGHVSLKLEDVALGCLATSNTEYLSKLRLEAPSPKAIVTRTALRNLSMQKGFNDKFCYGDITIHFKYLKEGESDHHVVTNVEKEKEPHLVEEVSVLPKEEQFVGQMGLTENKHSFQDTQFQNPTWCDYCKKKVWTKAASQCMFCAYVCHKKCQEKCLAETSVCGATDRRIDRTLKNLRLEGQETLLGLPPRVDAEASKSVNKTTGLTRHIINTSSRLLNLRQVSKTRLSEPGTDLVEPSPKHTPNTSDNEGSDTEVCGPNSPSKRGNSTGIKLVRKEGGLDDSVFIAVKEIGRDLYRGLPTEERIQKLEFMLDKLQNEIDQELEHNNSLVREEKETTDTRKKSLLSAALAKSGERLQALTLLMIHYRAGIEDIETLESLSLDQHSKKISKYTDDTEEDLDNEISQLIDSQPFSSISDDLFGPSESV [PDZD8]”, the thermal stability score in the data set on HeLa Kyoto [1] (setting [5]) is -1.18; with HeLa Kyoto [1] (cell cycle stage: mitosis) it was -0.643. The “solubility change mitosis (log2)” value with HeLa Kyoto [2] was -0.0986. Besides, in the data set on HeLa Kyoto [3], the “solubility in G1/S (log2)” value was -0.312. Moreover, the values for the melting temperature with HeLa Kyoto [4] (cell cycle stage: G1/S) and in the data set on HeLa Kyoto [4] (cell cycle stage: mitosis) were 51.8 °C and 52.2 °C, respectively.
